Laboratory results: the Immune Epitope Database (IEDB)
pIC50, pKd: −log10 of the molar value. One block for each sequence: values may come before it.

Columns and labels:
HLA-A*02:01 [1] = assay: IEDB peptide-MHC binding, cellular MHC/competitive/fluorescence; ≥ and ≤ were set here for values at or beyond the usual limits of such assays; conditions: source organism: Homo sapiens
HLA-B*27:05 [2] = assay: IEDB peptide-MHC binding, purified MHC/competitive/fluorescence; ≥ and ≤ were set here for values at or beyond the usual limits of such assays; conditions: source organism: hepatitis C virus genotype 1a
HLA-B*40:02 = assay: IEDB peptide-MHC binding, cellular MHC/competitive/fluorescence; ≥ and ≤ were set here for values at or beyond the usual limits of such assays; conditions: source organism: Homo sapiens
HLA-A*01:01 [3] = assay: IEDB peptide-MHC binding, purified MHC/direct/fluorescence; filed as Kd, often an IC50 or EC50 that approximates it; ≥ and ≤ were set here for values at or beyond the usual limits of such assays; conditions: source organism: Brucella abortus
HLA-A*02:01 [4] = assay: as above; conditions: source organism: Brucella abortus
HLA-A*02:03 [5] = assay: as above; conditions: source organism: Brucella suis 1330
HLA-A*02:11 = assay: as above; conditions: source organism: Brucella suis 1330
HLA-A*02:12 = assay: as above; conditions: source organism: Brucella suis 1330
HLA-A*02:19 = assay: as above; conditions: source organism: Brucella suis 1330
HLA-A*03:01 [6] = assay: as above; conditions: source organism: Brucella abortus
HLA-A*11:01 [7] = assay: as above; conditions: source organism: Brucella abortus
HLA-A*26:01 = assay: as above; conditions: source organism: Brucella suis 1330
HLA-A*31:01 [8] = assay: as above; conditions: source organism: Brucella abortus
HLA-A*69:01 [9] = assay: as above; conditions: source organism: Brucella abortus
HLA-B*07:02 = assay: as above; conditions: source organism: Brucella abortus
HLA-B*08:01 = assay: as above; conditions: source organism: Brucella suis 1330
HLA-B*15:01 [10] = assay: as above; conditions: source organism: Brucella abortus
HLA-B*27:05 [11] = assay: as above; conditions: source organism: Brucella abortus
HLA-B*40:01 [12] = assay: as above; conditions: source organism: Brucella abortus
HLA-B*44:02 = assay: as above; conditions: source organism: Brucella abortus
HLA-B*58:01 [13] = assay: as above; conditions: source organism: Brucella abortus
HLA-C*12:03 = assay: as above; conditions: source organism: Brucella abortus bv. 1 str. 9-941
HLA-A*01:01 [14] = assay: IEDB peptide-MHC binding, purified MHC/competitive/fluorescence; filed as Kd, often an IC50 or EC50 that approximates it; ≥ and ≤ were set here for values at or beyond the usual limits of such assays; conditions: source organism: Mycobacterium tuberculosis variant bovis BCG str. Pasteur 1173P2
HLA-A*02:01 [15] = assay: as above; conditions: source organism: Mycobacterium tuberculosis variant bovis BCG str. Pasteur 1173P2
HLA-A*02:03 [16] = assay: as above; conditions: source organism: Mycobacterium tuberculosis variant bovis BCG str. Pasteur 1173P2
HLA-A*02:06 = assay: as above; conditions: source organism: Mycobacterium tuberculosis variant bovis BCG str. Pasteur 1173P2
HLA-A*03:01 [17] = assay: as above; conditions: source organism: Mycobacterium tuberculosis variant bovis BCG str. Pasteur 1173P2
HLA-A*11:01 [18] = assay: as above; conditions: source organism: Mycobacterium tuberculosis variant bovis BCG str. Pasteur 1173P2
HLA-A*30:01 = assay: as above; conditions: source organism: Mycobacterium tuberculosis variant bovis BCG str. Pasteur 1173P2
HLA-A*31:01 [19] = assay: as above; conditions: source organism: Mycobacterium tuberculosis variant bovis BCG str. Pasteur 1173P2
HLA-A*69:01 [20] = assay: as above; conditions: source organism: Mycobacterium tuberculosis variant bovis BCG str. Pasteur 1173P2
HLA-B*15:01 [21] = assay: as above; conditions: source organism: Mycobacterium tuberculosis variant bovis BCG str. Pasteur 1173P2
HLA-B*15:09 = assay: as above; conditions: source organism: Mycobacterium tuberculosis variant bovis BCG str. Pasteur 1173P2
HLA-B*15:17 = assay: as above; conditions: source organism: Mycobacterium tuberculosis variant bovis BCG str. Pasteur 1173P2
HLA-B*15:42 = assay: as above; conditions: source organism: Mycobacterium tuberculosis variant bovis BCG str. Pasteur 1173P2
HLA-B*18:01 = assay: as above; conditions: source organism: Mycobacterium tuberculosis variant bovis BCG str. Pasteur 1173P2
HLA-B*27:05 [22] = assay: as above; conditions: source organism: Mycobacterium tuberculosis variant bovis BCG str. Pasteur 1173P2
HLA-B*35:01 = assay: as above; conditions: source organism: Mycobacterium tuberculosis variant bovis BCG str. Pasteur 1173P2
HLA-B*39:01 = assay: as above; conditions: source organism: Mycobacterium tuberculosis variant bovis BCG str. Pasteur 1173P2
HLA-B*40:01 [23] = assay: as above; conditions: source organism: Mycobacterium tuberculosis variant bovis BCG str. Pasteur 1173P2
HLA-B*45:06 = assay: as above; conditions: source organism: Mycobacterium tuberculosis variant bovis BCG str. Pasteur 1173P2
HLA-B*46:01 = assay: as above; conditions: source organism: Mycobacterium tuberculosis variant bovis BCG str. Pasteur 1173P2
HLA-B*48:01 = assay: as above; conditions: source organism: Mycobacterium tuberculosis variant bovis BCG str. Pasteur 1173P2
HLA-B*51:01 = assay: as above; conditions: source organism: Mycobacterium tuberculosis variant bovis BCG str. Pasteur 1173P2
HLA-B*57:01 = assay: as above; conditions: source organism: Mycobacterium tuberculosis variant bovis BCG str. Pasteur 1173P2
HLA-B*58:01 [24] = assay: as above; conditions: source organism: Mycobacterium tuberculosis variant bovis BCG str. Pasteur 1173P2
HLA-B*83:01 = assay: as above; conditions: source organism: Mycobacterium tuberculosis variant bovis BCG str. Pasteur 1173P2
HLA-B*52:01 = assay: IEDB peptide-MHC binding, purified MHC/competitive/radioactivity; filed as Kd, often an IC50 or EC50 that approximates it; ≥ and ≤ were set here for values at or beyond the usual limits of such assays; conditions: source organism: Homo sapiens

Sequence: GSAAICGKY
pIC50 (HLA-B*27:05 [2]): 5.32

Sequence: KLYERNTAF
pKd (HLA-A*01:01 [3]): ≤ 4.70
pKd (HLA-A*02:01 [4]): 6.54
pKd (HLA-A*02:03 [5]): 7.57
pKd (HLA-A*02:11): 8.05
pKd (HLA-A*02:12): 7.06
pKd (HLA-A*02:19): ≤ 5.30
pKd (HLA-A*03:01 [6]): 6.29
pKd (HLA-A*11:01 [7]): 5.40
pKd (HLA-A*26:01): ≤ 4.70
pKd (HLA-A*31:01 [8]): 6.86
pKd (HLA-A*69:01 [9]): ≤ 4.70
pKd (HLA-B*07:02): ≤ 4.70
pKd (HLA-B*08:01): 6.95
pKd (HLA-B*15:01 [10]): 7.24
pKd (HLA-B*27:05 [11]): 6.49
pKd (HLA-B*40:01 [12]): ≤ 4.70
pKd (HLA-B*44:02): ≤ 4.70
pKd (HLA-B*58:01 [13]): 6.55
pKd (HLA-C*12:03): 6.58

Sequence: KPIPHRTVL
pKd (HLA-A*01:01 [14]): 6.24
pKd (HLA-A*02:01 [15]): ≤ 4.70
pKd (HLA-A*02:03 [16]): ≤ 4.70
pKd (HLA-A*02:06): 5.55
pKd (HLA-A*03:01 [17]): 5.64
pKd (HLA-A*11:01 [18]): 6.90
pKd (HLA-A*30:01): 6.12
pKd (HLA-A*31:01 [19]): ≤ 4.70
pKd (HLA-A*69:01 [20]): ≤ 4.70
pKd (HLA-B*15:01 [21]): ≤ 4.70
pKd (HLA-B*15:09): 5.88
pKd (HLA-B*15:17): ≤ 4.70
pKd (HLA-B*15:42): ≤ 5.30
pKd (HLA-B*18:01): ≤ 4.70
pKd (HLA-B*27:05 [22]): ≤ 4.70
pKd (HLA-B*35:01): 6.21
pKd (HLA-B*39:01): 7.73
pKd (HLA-B*40:01 [23]): ≤ 4.70
pKd (HLA-B*45:06): ≤ 5.30
pKd (HLA-B*46:01): ≤ 4.70
pKd (HLA-B*48:01): ≤ 4.70
pKd (HLA-B*51:01): ≤ 4.70
pKd (HLA-B*57:01): ≤ 4.70
pKd (HLA-B*58:01 [24]): ≤ 4.70
pKd (HLA-B*83:01): 6.12

Further lines, results first:

pIC50 (HLA-A*02:01 [1]): 6.62
Sequence: FLMDFIHQV

pIC50 (HLA-B*40:02): 6.52
Sequence: GSFSRFYSL

pKd (HLA-B*52:01): ≤ 4.52
Sequence: QQITQTEV
